Test results taken from patent US20190338048A1.
Values joined by “and” are separate entries in the source; they are usually repeats but may differ in a detail not shown here. Identical values can stand only once. Like-named read-outs stand apart in the source and are kept apart here.

What was measured:
[1] = target: CR8071 lambda light chain L1 with E124R (SMCA design 2826); assay: SMCA LC-MS
[2] = target: CR8071 lambda light chain L1 with E124R (SMCA design 2826); assay: SMCA: four chains co-expressed, protein A, LC-MS
[3] = target: CR8071 lambda light chain L1 with Q38E (SMCA design 34); assay: SMCA LC-MS
[4] = target: CR8071 lambda light chain L1 with Q38E (SMCA design 34); assay: SMCA: four chains co-expressed, protein A, LC-MS
[5] = target: CR8071 lambda light chain L1, design 2188 (V133G_S176R); assay: SMCA, System C
[6] = target: CR8071 lambda light chain L1, design 2188 (V133G_S176R); assay: SMCA, System C, LC-MS
[7] = target: Design 2994 L1: CR8071 lambda light chain E124Q_T131K; assay: SMCA: H1, L1, H2, L2 co-expressed in CHO-3E7, protein A, LC-MS
[8] = target: Design 2994 L1: CR8071 lambda light chain E124Q_T131K; assay: SMCA, LC-MS
[9] = target: Design 2994 L2: SGN-CD19a kappa light chain Q124E_V133D; assay: SMCA: H1, L1, H2, L2 co-expressed in CHO-3E7, protein A, LC-MS
[10] = target: Design 2994 L2: SGN-CD19a kappa light chain Q124E_V133D; assay: SMCA, LC-MS
[11] = target: Design 3997 L2: SGN-CD19a kappa light chain S121K_V133I_S176D_T178E; assay: SMCA: H1, L1, H2, L2 co-expressed in CHO-3E7, protein A, LC-MS
[12] = target: Design 3997 L2: SGN-CD19a kappa light chain S121K_V133I_S176D_T178E; assay: SMCA, LC-MS
[13] = target: Design 4008 L2: SGN-CD19a kappa light chain Q124R_L135W_T178R; assay: SMCA, LC-MS
[14] = target: Design 4010 L2: SGN-CD19a kappa light chain S131R_V133G_L135W_S176R; assay: SMCA, LC-MS
[15] = target: Design 4040 L1: CR8071 lambda light chain K129T_S180E; assay: SMCA: H1, L1, H2, L2 co-expressed in CHO-3E7, protein A, LC-MS
[16] = target: Design 4040 L1: CR8071 lambda light chain K129T_S180E; assay: SMCA, LC-MS
[17] = target: Design 4040 L2: SGN-CD19a kappa light chain P44F_Q124K_T178R; assay: SMCA: H1, L1, H2, L2 co-expressed in CHO-3E7, protein A, LC-MS
[18] = target: Design 4040 L2: SGN-CD19a kappa light chain P44F_Q124K_T178R; assay: SMCA, LC-MS
[19] = target: Design 4040 L2: SGN-CD19a kappa light chain P44F_Q124K_T178R; assay: SMCA, LC-MS; remark: listed apart in the source
[20] = target: Design 4320 L1: CR8071 lambda light chain T116F_K129T_V133D_S176F; assay: SMCA: H1, L1, H2, L2 co-expressed in CHO-3E7, protein A, LC-MS
[21] = target: Design 4320 L1: CR8071 lambda light chain T116F_K129T_V133D_S176F; assay: SMCA, LC-MS
[22] = target: Design 4320 L2: SGN-CD19a kappa light chain Q124K_L135A_T178R; assay: SMCA, LC-MS
[23] = target: Designs 4008 and 4010 L1: CR8071 lambda light chain K129T_V133D; assay: SMCA: H1, L1, H2, L2 co-expressed in CHO-3E7, protein A, LC-MS
[24] = target: Designs 4008 and 4010 L1: CR8071 lambda light chain K129T_V133D; assay: SMCA, LC-MS
[25] = target: SGN-CD19a kappa light chain L2 with V133G_S176D (SMCA design 2188); assay: SMCA LC-MS
[26] = target: SGN-CD19a kappa light chain L2 with V133G_S176D (SMCA design 2188); assay: SMCA: four chains co-expressed, protein A, LC-MS
[27] = target: SGN-CD19a kappa light chain L2 with Q124E_Q160E_T180E (SMCA design 2826); assay: SMCA: four chains co-expressed, protein A, LC-MS
[28] = target: SGN-CD19a kappa light chain L2 with Q124E_Q160E_T180E (SMCA design 2826); assay: SMCA LC-MS
[29] = target: SGN-CD19a kappa light chain L2 with Q124E_Q160E_T180E (SMCA design 2826); assay: SMCA LC-MS; remark: listed apart in the source
[30] = target: SGN-CD19a kappa light chain L2 with Q124E_Q160E_T180E (SMCA design 2826); assay: SMCA: four chains co-expressed, protein A, LC-MS; remark: listed apart in the source
[31] = target: SGN-CD19a kappa light chain L2 S121K_Q124R_T178R (design 3967, Systems B and C); assay: SMCA: H1, L1, H2, L2 co-expressed, protein A, LC-MS
[32] = target: SGN-CD19a kappa light chain L2 S121K_Q124R_T178R (design 3967, Systems B and C); assay: as above; remark: listed apart in the source
[33] = target: SGN-CD19a kappa light chain L2 S121K_Q124R_T178R (design 3967, Systems B and C); assay: as above; remark: listed apart in the source
[34] = target: SGN-CD19a kappa light chain L2, design 2188 (V133G_S176D); assay: SMCA, System C
[35] = target: SGN-CD19a kappa light chain L2, design 2188 (V133G_S176D); assay: SMCA, System C, LC-MS
[36] = target: SGN-CD19a kappa light chain L2, design 2816 (Q124R_Q160K_T178R); assay: SMCA, System C
[37] = target: SGN-CD19a kappa light chain L2, design 2816 (Q124R_Q160K_T178R); assay: SMCA, System B, LC-MS
[38] = target: SGN-CD19a kappa light chain L2, design 2816 (Q124R_Q160K_T178R); assay: SMCA, System C, LC-MS
[39] = target: SGN-CD19a kappa light chain L2, design 2816 (Q124R_Q160K_T178R); assay: SMCA, System B
[40] = target: SGN-CD19a kappa light chain L2, design 2827 (Q124K_T178R); assay: SMCA, System C
[41] = target: SGN-CD19a kappa light chain L2, design 2827 (Q124K_T178R); assay: SMCA, System B, LC-MS
[42] = target: SGN-CD19a kappa light chain L2, design 2827 (Q124K_T178R); assay: SMCA, System C, LC-MS
[43] = target: SGN-CD19a kappa light chain L2, design 2827 (Q124K_T178R); assay: SMCA, System B

A Change in % H1L1 Pairing with respect to wild type [1] of -40.3% and a % H1L1 Pairing [2] of 27.8% were found for “CR8071 full-length heavy chain H1 with L143E_K145T (SMCA design 2826)” in this work.
A Change in % H1L1 Pairing with respect to wild type [3] of 24.5% and a % H1L1 Pairing [4] of 92.6% were found for “CR8071 full-length heavy chain H1 with Q39R (SMCA design 34)” in this work.
A % H1L1 Pairing [5] of 24.9% and a Change in % H1L1 Pairing with respect to wild type [6] of -23.5% were found for “CR8071 heavy chain H1, design 2188 (L124E)” in this work.
A % H1L1 Pairing [7] of 26.3% and a Change in % H1L1 Pairing with respect to wild type [8] of -22.1% were found for “Design 2994 H1: CR8071 heavy chain L143E_K145T_Q179E” in this work.
In the case of “Design 2994 H2: SGN-CD19a heavy chain L143K”, the % H2L2 Pairing [9] is reported as 99.2% and 99.7% and the Change in % H2L2 Pairing with respect to wild type [10] is reported as 45% and 20.1%.
A % H2L2 Pairing [11] of 99.9% and a Change in % H2L2 Pairing with respect to wild type [12] of 28.6% were found for “Design 3997 H2: SGN-CD19a heavy chain S188K_K228D” in this work.
For “Design 4008 H2: SGN-CD19a heavy chain L143E_K145T_Q179E”, the Change in % H2L2 Pairing with respect to wild type [13] was 33.3% and 38.4%.
For “Design 4010 H2: SGN-CD19a heavy chain L124E_K145T_Q179E”, the Change in % H2L2 Pairing with respect to wild type [14] was 33.9% and 38.7%.
A % H1L1 Pairing [15] of 98.7% and a Change in % H1L1 Pairing with respect to wild type [16] of 30.6% were found for “Design 4040 H1: CR8071 heavy chain S186R” in this work.
For “Design 4040 H2: SGN-CD19a heavy chain L45P_L143E_K145T_Q179E”, the % H2L2 Pairing [17] was 75.8% and 98.6%, the Change in % H2L2 Pairing with respect to wild type [18] was 21.6% and the Change in % H2L2 Pairing with respect to wild type [19] was 27.3%.
A % H1L1 Pairing [20] of 96.6% and a Change in % H1L1 Pairing with respect to wild type [21] of 14.3% were found for “Design 4320 H1: CR8071 heavy chain L143K_F174G” in this work.
“Design 4320 H2: SGN-CD19a heavy chain L143E_K145T_Q179E_V190F” was tested, and the Change in % H2L2 Pairing with respect to wild type [22] was 17.9% and 21.5%.
For “Designs 4008 and 4010 H1: CR8071 heavy chain A139W_L143K”, the % H1L1 Pairing [23] was 99.6% and 99.3% and the Change in % H1L1 Pairing with respect to wild type [24] was 17.3% and 17%.
A Change in % H2L2 Pairing with respect to wild type [25] of 38.7% and a % H2L2 Pairing [26] of 92.9% were found for “SGN-CD19a full-length heavy chain H2 with L124R (SMCA design 2188)” in this work.
A % H2L2 Pairing [27] of 98%, a Change in % H2L2 Pairing with respect to wild type [28] of 35.5% and a Change in % H2L2 Pairing with respect to wild type [29] of 26.7% were found for “SGN-CD19a full-length heavy chain H2 with Q179K (SMCA design 2826)” in this work. It also gave a % H2L2 Pairing [30] of 89.7%.
A % H2L2 Pairing [31] of 100%, a Change in % H2L2 Pairing with respect to wild type [31] of 28.7% and a % H2L2 Pairing [32] of 98.6% were found for “SGN-CD19a heavy chain H2 L143E_K145T_Q179E_K228D (design 3967, Systems B and C)” in this work. The Change in % H2L2 Pairing with respect to wild type [33] was 44.4%.
A % H2L2 Pairing [34] of 99.5% and a Change in % H2L2 Pairing with respect to wild type [35] of 19.9% were found for “SGN-CD19a heavy chain H2, design 2188 (L124R)” in this work.
A % H2L2 Pairing [36] of 79.7%, a Change in % H2L2 Pairing with respect to wild type [37] of -12.5% and a Change in % H2L2 Pairing with respect to wild type [38] of 19.8% were found for “SGN-CD19a heavy chain H2, design 2816 (L143E_K145T)” in this work. It also gave a % H2L2 Pairing [39] of 25.1%.
A % H2L2 Pairing [40] of 85%, a Change in % H2L2 Pairing with respect to wild type [41] of -15.3% and a Change in % H2L2 Pairing with respect to wild type [42] of 25.1% were found for “SGN-CD19a heavy chain H2, design 2827 (L143E_K145T_Q179E)” in this work. For the same substance, the % H2L2 Pairing [43] was 22.3%.
